# From patent US20260226142A1 (MAX PLANCK GESELLSCHAFT ZUR F RDERUNG DER WISSENSCHAFTEN E V, published 2026)
# Read-outs that look alike come from different tables or passages of the source.
# Tests used:
# [1] = target: T1, Cys-HLA (Staphylococcus aureus)
# [2] = target: T1, Cys-HLA; remark: listed apart in the source
# [3] = target: T1, Cys-HLA; remark: listed apart in the source
# [4] = target: T1, Cys-HLA; remark: listed apart in the source
Binder,Kd [1],further results
Ma8A05 (VHH) VHH: QVQLVESGGGLVQPGGSLRLSCAASPASGFTLDLYTIAWFLQAPGKEREGVSAISLSDEITYYSDAVKGRFTISRDSAKNTVFLQMDRLKPEDTGVYYCAIGAFDFILKEADADYWGQGTQVTVSS,600 pM,–
Ma8D05 (VHH) VHH: QVQLVESGGGLVQPGGSLRLSCAASPASGFTLDLYTIAWFLQAPGKEREGVSAISLSDEITYYSDTVKGRFTISRDSAKNTVFLQMDRLKPEDTGVYYCAIGAFDFILKEADADYWGQGTQVTVSS,1000 pM,–
Ma31A12 (VHH) VHH: QVQLVESGGGLVQPGGSLRLSCAASAASGFTLDLYTIAWFLQAPGKEREGVSAISLSDEITYYSDAVKGRFTISRDSAKNTVFLQMDRLKPEDTGVYYCAIGAFDFILKEVDADYWGQGTQVTVSS,65 pM,–
Ma31B06 (VHH) VHH: QVQLVQSGGGLVQPGGTLRLSCAASPASGFTLDLYTIAWFLQAPGKEREGVSAISLSDEITYYSDAVKGRFTISRDSAKNTVFLQMDRLKPEDTGVYYCAIGAFDFILKEADADYWGQGTQVTVSS,75 pM,–
Ma7F02 (VHH) VHH: QVQLVESGGGLVQAGGSLRLSCTVSGSIDSLHTMGWFRQAPGKKRDFVAVVSWSGGNTYYPDYAKGRFTISRDNTKNTVYLQMNSLKPEDTAIYYCAAESGSGNYWKIWEHEFDSWGQGTQVTVSS,40 pM,Kd [2]: ~50 pM
Ma8H03 (VHH) VHH: QVQLVESGGGLVHPGGSLRLSCAASGSSLDHYVIGWFRQVPGKQREGISCISSGGSTNYADSVKGRFTVSRDNVKSTVYLQMNSLAPDDSAEYYCAAQRNLGNFCVLGWLEYDDWGQGTQVTVSS,≤ 10 pM,Kd [3]: ≤ 1 pM
Bm28F09 (VHH) VHH: QVQLVESGGGLVEPGGSLTLSCAASGFTSKNYYIGWFRQAPGKYREGVASIGASDGSLYIADSVKGRFTISSDNAKNTVYLHPRNLKPEDSGVYYCATGRDSWRWVPSAMDYWGKGIQVTVSS,150 pM,–
Ma7A07 (VHH) VHH: QVQLVESGGGLVQPGGSLRLSCAASGFTLGDYTLGWFRQAPGKQREGVSSIASSALSIYIADSVKGRFTISRDDAKNTIYLHMNNLKPEDTGVYYCARGVDSWRWVPSAMDLWGKGTLVTVSS,≤ 10 pM,Kd [3]: 6 pM
Ma7A08 (VHH) VHH: QVQLVESGGGLVQPGGSLTLSCAASGFTLGDYTLGWFRQAPGKQREGVSSIASSVLSVYIADSVKGRFTISRDDAKNTIYLHMNNLKPEDTGVYYCARGVDSWRWVPSAMDLWGKGTLVTVSS,≤ 10 pM,–
Ma7B12 (VHH) VHH: QVQLVESGGGLVQPGGSLRLSCAASGFTLGDYTLGWFRQAPGKQREGVSSIASSALSIYIADSVKGRFTISRDNAKNTVYLHMNNLKPEDTGVYYCARGIDNWRWVPSAMDLWGKGTQVTVSS,≤ 10 pM,–
Ma7B03 (VHH) VHH: QVQLVESGGGLVQPGGSLRLSCAASGFTLSNYYVGWFRQAPGKQREGVSSIGSSDLSIYIADSVKGRFTISRDNAKNTIYLHMNNLKPDDTGVYYCARGTDSWRWVPSAMDLWGKGTQVTVSS,≤ 10 pM,–
Ma7C11 (VHH) VHH: QVQLVESGGGLVRAGGSLRLSCAASGSISSVNGMGWFRQAPGKERLFVAQVSLLDSSTYYADSVKGRFTISRDDAKNTMYLQMNNVRPEETAVYYCAATKLRIGTAFSSEYDYWGQGTQVTVSS,300 pM,–
Bm28C09 (VHH) VHH: QVQLVESGGSVVQAGGSLRLSCTASGRNFNSYAMGWFRRPPGEQRDFIAAIIRSTGKTTYADSDSVKGRFTISKDSSGNTVYLQMNNLKPEDTAIYYCAGGDAGPYAFGYDYWGQGTQVTVSS,≤ 10 pM,Kd [4]: 15 pM
Bm28H01 (VHH) VHH: QVQLVESGGGLVQPGGSLTLSCAASGFTLGDRTLGWFRQVAGKQREGVASIASGVLSAYIADSVKGRFTISRDDAKNTIYLHMNNLKPDDTGVYYCARGVDSWRWVPSTMDLWGKGILVTVSS,≤ 10 pM,–
Bm28A12 (VHH) VHH: QVQLVESGGGLVQAGGSLRLSCVVSGRALSSYNLAWFRQSPGKEREWIATIMPSADKAHYPDFLEGRFTISGDNTENTLYLQMNSLKPEDTAIYYCAAREPSYYHALFEYEYNLWGQGTQVTVSS,≤ 10 pM,Kd [4]: 130 pM
Bm28C04 (VHH) VHH: QVQLVESGGGSVQPGNSLRLSCKVSGRTFNSYALGWFRRRPGDQRDFVASIIRSTGGTSYADSVKGRFTISYDNVQNTVDLQMNSLEPEDTAIYYCAGGDGHIYAFGYDYWGQGTQVTVSS,≤ 10 pM,Kd [4]: 40 pM; Kd [2]: ~50 pM
Bm28H07 (VHH) VHH: QVQLVESGGGSVQPGNSLRLSCKVSGRTFNSYALGWFRRRPGDQRDFVASIIRSTGGTSYADSVKGRFTISYDNVQNTVDLQMSSLEPEDTAIYYCAGGDGHIYAFGYDYWGQGTQVTVSS,≤ 10 pM,–
Ma8D07 (VHH) VHH: QVQLVESGGGLVQPGGSLRLSCAASESIYKLNAMGWYRQAPGKELELVTTISSGGSTFYTDPVKGRFTISTDNAKNTVYLQMRSLKPEDTAMYYCAANPTYNHYSARGQGTQVTVSS,800 pM,–
Ma8D08 (VHH) VHH: QVQLVESGGGFVQAGGSLRLSCAASESIYKLNAMGWYRQAPGKELELVTTISSGGSTFYTDPVKGRFTISTDNAKNTVYLQMRSLKPEDTAMYYCAANPTYNHYSARGQGTQVTVSS,1000 pM,–
Ma7B01 (VHH) VHH: QVQLVESGGGLVQAGDSLSLSCAASGRTFSNYAMGWFRQAPGKERHFVAVINQIGDSTWYPDFAKGRFTISRDNAKNTLYLQMNSLKPEDTAVYYCAATDPRSYWRIWPHEYGYWGQGTQVTVSS,50 pM,–
Ma7E01 (VHH) VHH: QVQLVESGGGSVQAGDSLSLSCVASERTFSNYAMGWFRQAPGKERHFVAVINPIGEETWYPDFAKGRFTISRDNAKNTLYLQMNSLKPEDTAVYYCAATDPRSYWRIWEHEFDYWGQGTQVTVSS,≤ 10 pM,–
Ma7C02 (VHH) VHH: QVQLVESGGGLVQAGGSLRLSCAASGRTFSDYAMGWFRQAAGKDRDFVAVITRSGDSTYYPDSTKGRFTISRDNAKNTMYLQMNSLKPEDTARYYCAATDPTNYWRIWEHEFDYWGQGTQVTVSS,90 pM,–
Ma7D06 (VHH) VHH: QVQLVESGGGLVQAGGSLRLSCAASGSISGIDTMAWFRQIPGKDREFVAVIKWAAGSTWYPDFVKGRFTVSRDNAKNMVYLQMDSVKPEDTAIYYCAAAAGEKYYYRLFPYEYDYWGQGTQVTVSS,60 pM,–
Ma8E03 (VHH) VHH: QVQLVESGGGLVHPGGSLRLSCAASGSSLDHYVIGWFRQVPGKEREGVSCISRSGGSTNYADSVKGRFTVSRDNVKNMVYLQMNSLEPEDSAEYYCAAQRNLGNFCVLGWLEYDDWGQGTQVTVSS,≤ 10 pM,–
Ma8G02 (VHH) VHH: QVQLVESGGGLVLPGGSLRLSCAASGSSLDHYVIGWFRQYPGKEREGVSCISRSGGSTNYADSVKGRFTVSRDNVKNMVYLQMNSLEPEDSAEYYCAAQRNLGNFCVLGWVEYDDWGQGTQVTVSS,≤ 10 pM,–
